The data set deals with the molecule itself. The data set can be described thus: crystal structure; crystals by hanging-drop vapour diffusion at 22°C (15% PEG 3350, 0.2 M sodium formate, 0.1 M HEPES pH 7.5); free enzyme at 2.3 Å and putrescine-soaked at 2.1 Å; four molecules in the asymmetric unit; dimer interface analysed with PISA.

What is called stoichiometry N is a count of units in the complex or per binding partner.

B1: YgjG putrescine aminotransferase from Escherichia coli (enzyme, UniProt P42588 1-459, looked up)
chain: MNRLPSSASALACSAHALNLIEKRTLDHEEMKALNREVIEYFKEHVNPGFLEYRKSVTAGGDYGAVEWQAGSLNTLVDTQGQEFIDCLGGFGIFNVGHRNPVVVSAVQNQLAKQPLHSQELLDPLRAMLAKTLAALTPGKLKYSFFCNSGTESVEAALKLAKAYQSPRGKFTFIATSGAFHGKSLGALSATAKSTFRKPFMPLLPGFRHVPFGNIEAMRTALNECKKTGDDVAAVILEPIQGEGGVILPPPGYLTAVRKLCDEFGALMILDEVQTGMGRTGKMFACEHENVQPDILCLAKALGGGVMPIGATIATEEVFSVLFDNPFLHTTTFGGNPLACAAALATINVLLEQNLPAQAEQKGDMLLDGFRQLAREYPDLVQEARGKGMLMAIEFVDNEIGYNFASEMFRQRVLVAGTLNNAKTIRIEPPLTLTIEQCELVIKAARKALAAMRVSVEEA
modifications: PLP covalently linked to Lys300 via a Schiff base linkage (free enzyme)
notes: YgjG putrescine aminotransferase (EC 2.6.1.82), Escherichia coli; The seven N-terminal and one C-terminal residues and the His tag are not visible in the electron density; also called PATase; source: E. coli B834(DE3), purified (Ni-NTA, ion-exchange chromatography, size-exclusion chromatography); not shown: His6, C-terminal, kept
B1: the “stoichiometry N” value came to 2.

The record behind these values is publication PMC4244111, “Structure of Putrescine Aminotransferase from Escherichia coli Provides Insights into the Substrate Specificity among Class III Aminotransferases” (PLoS ONE, 2014).
